# Test results from patent US20110077250, “COMPOUNDS FOR MODULATING RNA BINDING PROTEINS AND USES THEREFOR” (published 2011).
# T1: MEX-5 (UniProt Q9XUB2 Q9XUB2:236-350)
# T1 sequence: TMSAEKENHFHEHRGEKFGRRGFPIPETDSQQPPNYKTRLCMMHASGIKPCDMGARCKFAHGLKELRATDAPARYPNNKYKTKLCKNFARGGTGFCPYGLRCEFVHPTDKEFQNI
# Biological target: T1, MEX-5
# Test: FP; 120 nM protein, 2 nM RNA, 100 uM zinc acetate, 20-50 mM Tris pH 8.0, 40-100 mM NaCl, tRNA; Z-value 0.8-0.9; also by gel shift; small-molecule inhibition of complex measured
# Details: tags: N-terminal MBP fusion (pMal-c, NEB); HTS paragraph says C-terminal fusion to MBP; from Open Biosystems ORFeome clone; label: 3'-fluorescein (FITC)
binder,measurement,value
UUUCUUUAUAACUUGUUACAAUUUUUGAAA (ssRNA) [TCR2 RNA],binding result,binds
